The target in test [1] is T1, bovine serum albumin (bovine, UniProt P02769 25-607).
T1 construct: also called BSA
The test is described as follows: phage-wrapping ELISA on BSA, anti-M13-HRP detection. Background: In an ELISA, binding on a coated surface is turned into a signal by an enzyme label.

In test [2] the target is T2, PSMA on the surface of LNCaP cells (human, UniProt Q04609 1-750).
T2 construct: whole, on cells; Cells were glutaraldehyde-fixed on the plate in the cell-based ELISA and in suspension in the sandwich ELISA; also called cell surface PSMA; PSMA on LNCaP cells
T2 sequence (Q04609 whole entry): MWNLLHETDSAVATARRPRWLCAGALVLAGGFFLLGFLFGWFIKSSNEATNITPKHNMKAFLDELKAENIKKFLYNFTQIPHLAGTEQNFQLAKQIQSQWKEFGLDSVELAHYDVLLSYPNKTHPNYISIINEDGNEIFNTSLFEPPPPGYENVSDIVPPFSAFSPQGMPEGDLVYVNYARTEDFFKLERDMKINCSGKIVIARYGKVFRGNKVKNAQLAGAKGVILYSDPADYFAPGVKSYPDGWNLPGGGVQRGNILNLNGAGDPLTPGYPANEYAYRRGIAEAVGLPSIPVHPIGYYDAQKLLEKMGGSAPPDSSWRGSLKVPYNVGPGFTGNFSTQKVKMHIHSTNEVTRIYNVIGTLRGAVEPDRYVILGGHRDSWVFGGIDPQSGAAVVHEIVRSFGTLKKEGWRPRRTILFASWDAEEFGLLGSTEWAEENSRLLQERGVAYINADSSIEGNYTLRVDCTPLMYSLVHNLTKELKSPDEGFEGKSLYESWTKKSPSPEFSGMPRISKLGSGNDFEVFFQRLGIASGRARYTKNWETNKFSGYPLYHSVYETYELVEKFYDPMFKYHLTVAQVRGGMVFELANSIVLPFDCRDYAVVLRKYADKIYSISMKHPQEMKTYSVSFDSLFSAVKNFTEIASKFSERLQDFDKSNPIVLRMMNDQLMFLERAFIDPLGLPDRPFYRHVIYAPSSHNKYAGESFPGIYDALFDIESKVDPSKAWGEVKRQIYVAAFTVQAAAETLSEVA
Put plainly: cell-based phage ELISA on fixed LNCaP cells, anti-M13-HRP detection, HRP activity as fold change.

The target in test [3] is T2, PSMA on the surface of LNCaP cells. Described as above. The source holds these as a separate data set.
For test [4], the target named is T3, prostate-specific membrane antigen (PSMA), dimeric form (UniProt Q04609 44-750, limits assumed).
T3 construct: Purified protein, construct not described; also called dimeric PSMA
T3 sequence (Q04609 44-750 limits assumed): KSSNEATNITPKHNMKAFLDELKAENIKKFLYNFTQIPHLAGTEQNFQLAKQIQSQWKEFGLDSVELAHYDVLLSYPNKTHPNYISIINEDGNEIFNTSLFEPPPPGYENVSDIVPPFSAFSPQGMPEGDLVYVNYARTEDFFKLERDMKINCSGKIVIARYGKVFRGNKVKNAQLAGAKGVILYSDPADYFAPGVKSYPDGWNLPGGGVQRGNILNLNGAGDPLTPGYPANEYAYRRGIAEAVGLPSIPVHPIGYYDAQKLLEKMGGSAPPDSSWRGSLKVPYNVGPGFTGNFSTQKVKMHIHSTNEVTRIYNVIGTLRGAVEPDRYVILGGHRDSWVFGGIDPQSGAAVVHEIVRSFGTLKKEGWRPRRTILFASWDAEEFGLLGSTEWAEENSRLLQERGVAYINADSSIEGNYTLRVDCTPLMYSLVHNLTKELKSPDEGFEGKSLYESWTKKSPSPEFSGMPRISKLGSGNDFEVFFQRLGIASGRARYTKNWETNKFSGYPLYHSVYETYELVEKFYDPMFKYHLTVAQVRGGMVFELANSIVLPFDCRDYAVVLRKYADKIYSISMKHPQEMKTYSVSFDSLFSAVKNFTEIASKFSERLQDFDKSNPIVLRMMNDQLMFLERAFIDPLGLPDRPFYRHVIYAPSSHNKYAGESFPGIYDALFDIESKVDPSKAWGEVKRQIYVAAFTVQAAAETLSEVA
The test is described as follows: phage ELISA, PSMA coated on the plate, [PSMA] = 13 nM, anti-M13-HRP detection.

Test [5] concerns the target T4, prostate-specific membrane antigen (PSMA), monomeric form (UniProt Q04609 44-750, limits assumed).
T4 construct: Purified protein coated on the ELISA plate; construct not described
Put plainly: phage ELISA, PSMA monomer coated on the plate, [PSMA] = 11.1 nM, anti-M13-HRP detection. As to the method: (§1) In a phage-based ELISA, specific wells of a 96-well microtiter plate (Nunc Maxisorp) were coated with 100 µL/well of a solution of PSMA (5.56 or 11.1 nM) monomer or dimer protein diluted in PBS. The plate was incubated for 1 h on a shaker at room temperature. The coating solution was removed, and the wells were blocked with 320 µL/well of 0.2% w/v solution of BSA in PBS for 30 min, and washed three times with 300 µL/well of wash buffer PT (0.05% TWEEN-20 in PBS). […] The wells on the ELISA plate were then incubated with the phage samples (100 µL/well) for 1 h. The wells were washed five times with PT and then incubated with horseradish-peroxidase-conjugated anti-M13 antibody (100 µL/well, 1:5000 dilution in PBT) for 30 min. The wells were washed three times with PT, and two times with PBS. The plate was then developed by incubating with HRP substrate solution (100 µL/well; 1 mg/mL o-phenylenediamine dihydrochloride and 0.02% w/v H_2O_2) in citric acid buffer (50 mM citric acid, 50 mM Na_2HPO_4, pH 5.0). Following an appropriate incubation time, HRP activity was measured spectrophotometrically at 450 nm using a microtiter plate reader (Bio-Tek).

The target in test [6] is T3, prostate-specific membrane antigen …. The test is described as follows: electrochemical impedance of a virus-PEDOT film in PBF-Tween after exposure to PSMA, ΔR/Ro against frequency; concentration not given.
For test [7] the target is unchanged. Put plainly: phage-based wrapping ELISA, PSMA dimer coated (FIG. 3C). As to the method: as §1, with “The plate was then developed by incubating with HRP substrate solution (100 µL/well; 1 mg/mL o-phenylenediamine dihydrochloride and 0.02% w/v H_2O_2) in citric acid buffer (50 mM citric acid, 50 mM Na_2HPO_4, pH 5.0).” left out
(§2) Phage-based wrapping ELISA: Phage (5 nM in 225 µL) and 2 µL of the purified cycloaddition reaction product, $KCS$-1/2 (308.7 µM) in water: acetonitrile (60:40), were mixed and serially diluted in PBT. […] Levels of phage binding were quantified as described above.

Test [8] has the same target. The test is described as follows: electrochemical impedance spectroscopy, virus-PEDOT film, PBF-TWEEN buffer (FIG. 4F).
The target is the same in test [9]. Put plainly: electrochemical impedance spectroscopy, virus-PEDOT film, Hill fit of ΔR/Ro against PSMA concentration; phage-2 wrapped with KCS-1. The procedure:
(§3) Biosensing with Virus-PEDOT Films. To explore whether these wrapped virus particles could be exploited to create virus-electrode biosensors with a higher sensitivity for PSMA, films of PEDOT were prepared on gold electrodes by electropolymerization in the presence of phage-2 (FIG. 2B). The PEDOT films formed in solution during electropolymerization associate with the negatively charged perchlorate ions from the electrolyte solution as it is deposited onto the gold electrode.[30] Polymerization of EDOT in the presence of negatively charged phage particles leads to incorporation of virus particles into the polymeric film as counterion dopants due to electrostatic interactions.[21] […] SEM imaging confirms incorporation of phage into the bioaffinity matrix; both filament-like and less extended features having dimensions consistent with phage integrated as rope-like bundles into the polymer at various angles to the film (FIGS. 4B-4C) were observed. The $KCS$-1 wrapper was then applied in vitro simply by exposing the resultant phage-2 film for a short time to an aqueous solution of the wrapper. For the biosensing measurements, only the highest affinity ligand combination of phage-2 wrapped with $KCS$-1 was used, and it was studied in comparison to phage-2 films.
(§4) where $Y=\Delta R/R_o$, [L] is the ligand concentration, and n is the Hill coefficient.[31] […]

The next test deals with T5, transferrin receptor (UniProt P02786 89-760, limits assumed).
T5 construct: Alternative target used as specificity control in impedance sensing; also called TfR
T5 sequence (P02786 89-760 limits assumed): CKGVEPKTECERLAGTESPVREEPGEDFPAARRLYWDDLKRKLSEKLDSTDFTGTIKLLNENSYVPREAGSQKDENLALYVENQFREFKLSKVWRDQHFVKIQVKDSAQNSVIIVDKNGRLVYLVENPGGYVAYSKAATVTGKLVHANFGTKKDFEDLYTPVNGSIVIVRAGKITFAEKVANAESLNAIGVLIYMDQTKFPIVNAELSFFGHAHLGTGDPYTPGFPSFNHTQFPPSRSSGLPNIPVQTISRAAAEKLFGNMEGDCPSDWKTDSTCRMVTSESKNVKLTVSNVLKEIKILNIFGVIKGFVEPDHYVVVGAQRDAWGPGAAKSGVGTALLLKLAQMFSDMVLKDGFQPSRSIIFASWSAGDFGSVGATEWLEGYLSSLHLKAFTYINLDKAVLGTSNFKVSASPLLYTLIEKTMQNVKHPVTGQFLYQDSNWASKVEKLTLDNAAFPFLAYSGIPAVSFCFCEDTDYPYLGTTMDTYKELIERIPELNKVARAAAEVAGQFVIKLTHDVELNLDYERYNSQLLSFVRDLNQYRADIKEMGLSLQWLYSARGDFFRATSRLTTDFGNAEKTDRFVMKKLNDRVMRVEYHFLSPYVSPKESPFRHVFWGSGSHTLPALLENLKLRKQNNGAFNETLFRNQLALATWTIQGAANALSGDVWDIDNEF
Put plainly: electrochemical impedance of a virus-PEDOT film in PBF-Tween after exposure to TfR, ΔR/Ro against frequency; concentration not given.

Test [10] concerns the target T3, prostate-specific membrane antigen …. Put plainly: phage-based wrapping ELISA, PSMA dimer coated (FIG. 3A). As to the method: as §1, with “The plate was then developed by incubating with HRP substrate solution (100 µL/well; 1 mg/mL o-phenylenediamine dihydrochloride and 0.02% w/v H_2O_2) in citric acid buffer (50 mM citric acid, 50 mM Na_2HPO_4, pH 5.0).” left out
as §2

Test [11] deals with T1, bovine serum albumin. The test is described as follows: phage-wrapping ELISA on BSA, anti-M13-HRP detection. The source holds these as a separate data set.
In test [12] the target is T1, bovine serum albumin. The test is described as follows: phage ELISA on BSA, anti-M13-HRP detection.
For test [13], the target named is T3, prostate-specific membrane antigen …. Put plainly: phage ELISA, PSMA dimer coated on the plate, [PSMA] = 11.1 nM, phage titrated, anti-M13-HRP detection. As to the method:
as §1

For test [14] the target is unchanged. Put plainly: electrochemical impedance spectroscopy, virus-PEDOT film, Hill fit of ΔR/Ro against PSMA concentration; phage-2 alone, not wrapped with KCS-1. The procedure: as §3, §4

Where two headings read alike, the source gives them in different places. Ends that are not written are not given here. * marks the point of attachment. Butanoyl(4-N3) = [N-]=[N+]=NCCCC(=O)*; Pent4ynoyl = C#CCCC(=O)*

Usually Kd stands for the concentration at which binding is half-saturated. A word on the EC50 (read off the curve): it is the concentration at which the effect is half-maximal. A low value points to higher potency in that assay.

T1 sequence (P02769 25-607 limits assumed): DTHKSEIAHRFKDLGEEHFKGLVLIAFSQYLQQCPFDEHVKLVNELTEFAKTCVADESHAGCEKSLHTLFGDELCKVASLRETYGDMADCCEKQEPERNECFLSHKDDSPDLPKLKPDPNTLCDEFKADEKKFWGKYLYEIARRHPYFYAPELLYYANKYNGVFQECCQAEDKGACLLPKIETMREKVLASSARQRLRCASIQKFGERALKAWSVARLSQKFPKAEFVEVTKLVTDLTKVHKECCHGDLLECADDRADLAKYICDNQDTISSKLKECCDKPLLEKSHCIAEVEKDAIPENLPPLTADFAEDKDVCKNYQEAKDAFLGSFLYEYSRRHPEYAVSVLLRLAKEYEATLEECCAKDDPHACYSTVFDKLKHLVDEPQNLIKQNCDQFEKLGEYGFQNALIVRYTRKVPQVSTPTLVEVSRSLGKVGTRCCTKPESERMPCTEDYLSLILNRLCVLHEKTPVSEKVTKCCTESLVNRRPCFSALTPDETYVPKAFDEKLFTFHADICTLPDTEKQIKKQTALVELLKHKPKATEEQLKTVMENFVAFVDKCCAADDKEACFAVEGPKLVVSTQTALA
T4 sequence (Q04609 44-750 limits assumed): as the sequence (Q04609 44-750 limits assumed) above

B1: phage-2 wrapped with a 1:1 (w/w) mixture of KCS-2 and KCS-1 (peptide)
chain: SECVEVFQNSCDW
peptide 1: Pent4ynoyl-KKKKKKKKKKKKKK-NH2
peptide 2: {Butanoyl(4-N3)}-KKKCALCEFLG-NH2
peptide 3: {Butanoyl(4-N3)}-KKKSECVEVFQNSCDW-NH2
modifications: cysteine pairing not given here; also: K14 chains clicked to ligand chains, triazole to a chain's N-terminus
notes: Whole M13 virion with both wrappers held electrostatically on the coat; also called 1:1 mixture of KCS-1 and KCS-2 wrapped on the surface of phage-2; not shown: M13 major coat protein P8, 50 amino acid residues; NCBI GI:402239556 named in an embodiment
Take B1: the binding result in the test with bovine serum albumin [1] was “no binding (tested: 5 nM)”.

B2: phage wrapped with P100NSP-2 (peptide)
peptide 1: SECVEVFQNSCDW
peptide 2: KKKKKKKKKKKKKKC
chain: AEGDDPAKAAFNSLQASATEYIGYAWAMVVVIVGATIGIKLFKKFTSKAS
modifications: Cys thiol joined to the maleimide of the PEG100 ligand; C-terminal carboxamide; N-terminal azide clicked to pentynoic acid, then HBTU-coupled non-specifically (carboxylates incl. side chains, Asp12 may be partly modified) to Mal-PEG100-NH2; C-terminal carboxamide
notes: mature; Whole M13 virion; K14-Cys held electrostatically on P8
As to B2, the binding result in test [2] was “binds”.

B3: phage wrapped with P100SP-P4-2 (peptide)
peptide 1: SECVEVFQNSCDW
peptide 2: KKKKKKKKKKKKKKC
chain: B2 chain
modifications: Cys thiol joined to the maleimide of the PEG100 ligand; C-terminal carboxamide; N-terminal azido-PEG4-carboxylic acid, clicked to Mal-PEG100-alkyne (specific attachment); C-terminal carboxamide
notes: as for B2
For the molecule B3, the binding result in test [3] is reported as “binds”.

B4: phage wrapped with P100SP-2 (peptide)
peptide 1: SECVEVFQNSCDW
peptide 2: KKKKKKKKKKKKKKC
chain: B2 chain
modifications: Cys thiol joined to the maleimide of the PEG100 ligand; C-terminal carboxamide; N-terminal azide clicked to Mal-PEG100-alkyne (specific attachment); C-terminal carboxamide
notes: as for B2
As for B4, the binding result in test [3] is reported as “binds”.

B5: KO7 helper phage (other, M13 bacteriophage, UniProt P69541 24-73, looked up)
chain: B2 chain
notes: mature; Helper phage lacking a genetically encoded PSMA ligand; bought from GE Healthcare
Regarding B5, the binding result in test [4] is “no binding (tested: about 5 nM)”.

B6: phage wrapped with P100NSP-P4-2 (peptide)
peptide 1: SECVEVFQNSCDW
peptide 2: KKKKKKKKKKKKKKC
chain: B2 chain
modifications: Cys thiol joined to the maleimide of the PEG100 ligand; C-terminal carboxamide; N-terminal azido-PEG4-carboxylic acid, clicked to pentynoic acid, then HBTU-coupled non-specifically to Mal-PEG100-NH2; C-terminal carboxamide
notes: as for B2
Regarding B6, the binding result in test [3] was “binds”.

Consider AEGDDPAKAAFNSLQASATEYIGYAWAMVVVIVGATIGIKLFKKFTSKAS (other, M13 bacteriophage, UniProt P69541 24-73, looked up, not fully specified, mature; also called control phage) [Stop-4 phage (phagemid packaged by helper phage, no ligand displayed)], for which the values for the binding result in test [5] and in [6] were “no binding (tested: last point just right of the 10 nM tick)” and “no binding”, respectively.

B7: phage-2 wrapped with KCS-1 (peptide)
chain: SECVEVFQNSCDW
peptide 1: Pent4ynoyl-KKKKKKKKKKKKKK-NH2
peptide 2: {Butanoyl(4-N3)}-KKKCALCEFLG-NH2
modifications: not fully specified; cysteine pairing not given here; also: KCS-1 wrapper held on P8 coat electrostatically, triazole to a chain's N-terminus
notes: Whole M13 virion (free in ELISA, embedded in a PEDOT film for impedance sensing); the KCS-1 wrapper is held on the P8 coat electrostatically; also called Phage-2 film wrapped with KCS-1; not shown: M13 major coat protein P8, 50 amino acid residues; NCBI GI:402239556 named in an embodiment
In the case of B7, the “fold higher apparent affinity than phage-2 wrapped with KCS-2” value in [7] was 4 fold. Further, the binding result was “no binding (tested: 5 nM)” with bovine serum albumin [1] and “no binding” in the test with transferrin receptor. Also, in test [8], the “fold ΔR/Ro relative to films with unwrapped phage-2” value worked out at 3 fold. The Kd in test [9] worked out at 33 nM.

B8: phage-2 wrapped with KCS-2 (peptide)
chain: SECVEVFQNSCDW
peptide 1: Pent4ynoyl-KKKKKKKKKKKKKK-NH2
peptide 2: {Butanoyl(4-N3)}-KKKSECVEVFQNSCDW-NH2
modifications: not fully specified; cysteine pairing not given here; also: KCS-2 wrapper held on P8 coat electrostatically, triazole to a chain's N-terminus
notes: Whole M13 virion; the KCS-2 wrapper (K14 clicked to K3-ligand 2) is held on the P8 coat electrostatically, not covalently; also called Phage with chemically and genetically encoded ligands; not shown: M13 major coat protein P8, 50 amino acid residues; NCBI GI:402239556 named in an embodiment
With B8, in test [10], the “fold higher affinity than phage-2 without the ligand wrapper” value was about 50 fold. Further, in the test with bovine serum albumin [11], the binding result was “no binding (tested: 5 nM)”.

B9: phage-2 (M13 phage displaying PSMA ligand 2 as a fusion to P8) (peptide)
chain: SECVEVFQNSCDW
modifications: not fully specified; cysteine pairing not given here; also: displayed on M13 phage as fusion to P8 coat protein
notes: Whole M13 virion in the assay (free in ELISA, embedded in a PEDOT film for impedance sensing); also called peptide 2; peptide-2; not shown: M13 major coat protein P8, 50 amino acid residues; NCBI GI:402239556 named in an embodiment
For the molecule B9, the binding result with bovine serum albumin [12] was “no binding (tested: 5 nM)”. The “EC50 (read off the curve)” value in test [13] was about 0.008 nM. Moreover, in test [14], the Kd worked out at 54 nM.

The values are drawn from patent US11168306 (University of California, dated 2021).
